From US20100041597A1, “PEPTIDES TARGETED TO PROTEIN KINASE C ISOFORMS AND USES THEREOF” (priority 2005, published 2010)

Tests used:
Assay in all cases: Competitive binding assay using cell extracts (Western blot)
PKC-ι = molecular target: T1, PKC-ι (Homo sapiens, UniProt P41743); design: key: —: no detectable affinity; Low to very low affinity at 10X or 20X or both PRE concentrations in at least one cell line in the cell extract assay; Low affinity in purified isoform assay.; Moderate affinity at 10X or 20X or both PRE concentrations in at least one cell line in the cell extract assay.; High affinity at 10X or 20X or both PRE concentrations in at least one cell line in the cell extract assay; High affinity in purified isoform assay; settings: Cell extract; PRE at 10X, 20X antibody concentration; Table 20
T1 construct: cytoplasmic extracts from different cell lines expressing appropriate PKC isoforms; endogenous in cells; host or cells: MDAMB231, LnCAP, H661, CCD16Lu, Du145, LS180 (human, from ATCC)
T1 sequence (P41743 1-596): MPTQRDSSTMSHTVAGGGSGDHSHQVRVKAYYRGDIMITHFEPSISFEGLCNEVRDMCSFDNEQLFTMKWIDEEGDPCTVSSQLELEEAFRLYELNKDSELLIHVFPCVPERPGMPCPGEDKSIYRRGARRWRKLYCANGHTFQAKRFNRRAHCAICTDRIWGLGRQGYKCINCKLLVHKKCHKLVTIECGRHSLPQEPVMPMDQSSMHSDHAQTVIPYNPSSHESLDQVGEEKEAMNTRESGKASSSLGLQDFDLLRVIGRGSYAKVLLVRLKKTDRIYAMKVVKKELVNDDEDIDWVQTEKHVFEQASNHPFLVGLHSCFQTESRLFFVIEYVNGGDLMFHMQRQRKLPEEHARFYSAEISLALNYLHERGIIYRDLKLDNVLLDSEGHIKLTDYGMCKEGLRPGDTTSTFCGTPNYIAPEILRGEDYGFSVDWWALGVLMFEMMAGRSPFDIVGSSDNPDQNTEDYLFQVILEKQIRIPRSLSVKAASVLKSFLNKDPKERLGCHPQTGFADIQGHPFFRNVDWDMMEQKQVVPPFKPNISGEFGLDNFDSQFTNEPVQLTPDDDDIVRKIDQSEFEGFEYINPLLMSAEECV
Description: (§1) Binding efficiency and specificity of the peptides PRE 2, 3, 4, 5, 6, 7, 8, 9, 10, 11, 12 and 13 (see Table 3) was also tested using cytoplasmic extracts from different cell lines expressing appropriate PKC isoforms as described for Example 1. Briefly, the protein cytoplasmic extracts were separated by electrophoresis and transferred onto nitrocellulose membranes by standard Western blotting procedures. The bands on the Western blots were detected with matching primary antibodies and alkaline phosphatase conjugated secondary antibody. The bands were then scanned and the relative density measurements obtained.
(§2) This procedure to assess the binding characteristics of the PREs is based on competition binding of the PRE with the primary anti-isoform PKC specific antibodies. The lower the measured band density, the greater the binding of the PRE to the PKC isoform. The PREs were added at 10 and 20 times (10×, 20×) the primary antibody concentration, according to classical competition between antigenic peptide and primary antibody. The following cell lines (obtained from the ATCC) were used: H661—NCI human lung carcinoma NSCLC; MDAMB231—human highly invasive breast cancer cell line from pleural effusion; LS180—human colon adenocarcinoma; LnCAP—human prostate adenocarcinoma; CCD16Lu—human lung fibroblasts; Du145—human prostate carcinoma brain metastasis, and T24—human bladder carcinoma.
(§3) In these cases, the 20× band density figures relative to control and 10× values were reliable.

PKC-ε = molecular target: T2, PKC-ε (Homo sapiens, UniProt Q02156); design: cytoplasmic extracts from different cell lines expressing appropriate PKC isoforms; endogenous in cells; host or cells: CCD16Lu, LnCAP, Du145, MDAMB231, LS180; key: —: no detectable affinity; Low to very low affinity at 10X or 20X or both PRE concentrations in at least one cell line in the cell extract assay; Low affinity in purified isoform assay.; Moderate affinity at 10X or 20X or both PRE concentrations in at least one cell line in the cell extract assay.; High affinity at 10X or 20X or both PRE concentrations in at least one cell line in the cell extract assay; High affinity in purified isoform assay; settings: Cell extract; PRE at 10X, 20X antibody concentration; Table 20
T2 sequence (Q02156 1-737): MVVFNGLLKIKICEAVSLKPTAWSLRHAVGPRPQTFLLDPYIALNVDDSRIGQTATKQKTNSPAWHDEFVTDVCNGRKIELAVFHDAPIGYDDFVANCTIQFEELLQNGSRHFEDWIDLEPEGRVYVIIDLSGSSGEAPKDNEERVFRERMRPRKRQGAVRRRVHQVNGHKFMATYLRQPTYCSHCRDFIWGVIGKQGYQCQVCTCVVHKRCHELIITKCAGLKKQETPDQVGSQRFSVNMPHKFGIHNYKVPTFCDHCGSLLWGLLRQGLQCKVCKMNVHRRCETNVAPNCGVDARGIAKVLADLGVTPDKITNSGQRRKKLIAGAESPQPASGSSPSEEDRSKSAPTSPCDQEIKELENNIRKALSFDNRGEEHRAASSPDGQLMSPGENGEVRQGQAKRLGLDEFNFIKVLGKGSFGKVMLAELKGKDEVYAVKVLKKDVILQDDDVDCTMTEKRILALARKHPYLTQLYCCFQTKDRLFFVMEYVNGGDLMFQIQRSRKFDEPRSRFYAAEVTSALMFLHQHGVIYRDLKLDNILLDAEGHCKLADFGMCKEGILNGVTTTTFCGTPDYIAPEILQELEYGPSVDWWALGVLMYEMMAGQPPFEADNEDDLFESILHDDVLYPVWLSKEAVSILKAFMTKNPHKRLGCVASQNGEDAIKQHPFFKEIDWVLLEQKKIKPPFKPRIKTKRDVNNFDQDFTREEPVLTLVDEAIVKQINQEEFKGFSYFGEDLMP
Description: as §1, §2, §3

PKC-δ = PKC-δ (Homo sapiens, UniProt Q05655); design: cytoplasmic extracts from different cell lines expressing appropriate PKC isoforms; endogenous in cells; host or cells: H661, MDAMB231, LS180, T24 (human, from ATCC); key to Affinity for PKC isoform δ: —: no detectable affinity; Low to very low affinity at 10X or 20X or both PRE concentrations in at least one cell line in the cell extract assay; Low affinity in purified isoform assay.; Moderate affinity at 10X or 20X or both PRE concentrations in at least one cell line in the cell extract assay.; High affinity at 10X or 20X or both PRE concentrations in at least one cell line in the cell extract assay; High affinity in purified isoform assay; settings: for Affinity for PKC isoform δ: Cell extract, PRE at 10X, 20X antibody concentration, Table 20
Sequence of PKC-δ (Q05655 whole entry, canonical isoform): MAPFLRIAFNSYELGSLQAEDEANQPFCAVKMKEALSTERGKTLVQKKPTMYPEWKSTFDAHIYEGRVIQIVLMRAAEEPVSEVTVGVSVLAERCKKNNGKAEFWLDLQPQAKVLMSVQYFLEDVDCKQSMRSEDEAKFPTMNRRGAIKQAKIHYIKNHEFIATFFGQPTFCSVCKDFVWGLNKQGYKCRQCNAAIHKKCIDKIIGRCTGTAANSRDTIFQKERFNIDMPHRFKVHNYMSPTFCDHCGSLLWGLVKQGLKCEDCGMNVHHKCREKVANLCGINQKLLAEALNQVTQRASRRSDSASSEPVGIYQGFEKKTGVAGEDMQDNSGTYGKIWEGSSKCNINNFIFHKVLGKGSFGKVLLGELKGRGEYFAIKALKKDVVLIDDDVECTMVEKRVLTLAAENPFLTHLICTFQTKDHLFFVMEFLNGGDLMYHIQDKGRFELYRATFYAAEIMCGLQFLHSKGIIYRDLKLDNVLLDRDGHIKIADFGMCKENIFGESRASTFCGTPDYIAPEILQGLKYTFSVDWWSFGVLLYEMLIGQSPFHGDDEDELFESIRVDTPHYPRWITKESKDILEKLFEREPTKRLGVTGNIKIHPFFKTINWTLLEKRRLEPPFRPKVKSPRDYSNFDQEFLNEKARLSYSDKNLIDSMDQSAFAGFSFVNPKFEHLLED
Description: as §1, §2, §3

Row | Substance | Affinity for PKC isoform ι (PKC-ι) | Affinity for PKC isoform ε (PKC-ε) | Affinity for PKC isoform δ (PKC-δ) | affinity for PKC-δ (PKC-δ; cell extracts)
1 | Ac-AKGIQEVKGGDAQNLIGISI-NH2 [PRE 3] | L | L | H | 
2 | Ac-AKGIQEVKGGKDAQNLIGISI-NH2 [PRE 5] |  | L | — | 
3 | Ac-ISIGILQNADK-NH2 [PRE 7] | — | — | L | 
4 | Ac-KDANQLIGISI-NH2 [PRE 6] | — | M | M/H | 
5 | Ac-KDAQNLIGISI-NH2 [PRE 4, Ac-KDAQNLIGISI-NH2] | M/L | H/L | — | none for PKC-6
6 | ILEDKGGDAQNLIGISI [PRE 8] |  | L | L | 
7 | RRKKGGKDFVVKR [PRE 1] | — |  | — | 

Next, values leading:

Row | Affinity for PKC isoform ι (PKC-ι) | Affinity for PKC isoform ε (PKC-ε) | Affinity for PKC isoform δ (PKC-δ) | affinity for PKC-δ (PKC-δ; cell extracts) | Substance
8 |  | M/L | H |  | Ac-ISIGILNQADK-NH2 [PRE 10]
9 | — | — | — |  | Ac-KDAQNLI-NH2 [PRE 12]
10 | — | — | — |  | Ac-RDAQNLI-NH2 [PRE 13]
11 |  | — | — |  | Ac-RDAQNLIGISI-NH2 [PRE 11]
12 |  | M/L | H |  | Ac-isigilgnadk-NH2 [PRE 9]
